Assay results from publication PMC3325211, “Mutations in MITF and PAX3 Cause “Splashed White” and Other White Spotting Phenotypes in Horses”.

Target: MITF wild-type (DNA-binding fragment) (UniProt Q95MD1 112-207)
Assay: EMSA; 5 mM MgCl2; 20 mM Tris, 50 mM NaCl, 5 mM MgCl2, 1 mM DTT, 33 ug/ml BSA, pH 7.4, on ice 30 min; 6% native PAGE in 0.5x TBE
Conditions: protein: recombinant; (Ni-NTA purified); chain copies: 2; label: radioactive label

Sequence of MITF wild-type (DNA-binding fragment) (Q95MD1 entry or part of it): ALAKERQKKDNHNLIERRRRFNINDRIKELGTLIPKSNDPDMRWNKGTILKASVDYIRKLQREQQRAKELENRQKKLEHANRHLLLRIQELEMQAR

B1: M-box oligonucleotide (dsDNA)
DNA 1: GGAAAGTTAGTCATGTGCTTTTCAGAAGA
DNA 2: TCTTCTGAAAAGCACATGACTAACTTTCC
Question: Does B1 bind?
Answer: Result: binds
